Assay results published in the supplement of paper PMC10126150.
± gives the standard deviation of the averaged measurements.

Test system: ATP
Experiment: switch fluorescence ratio, 500 uM ATP over buffer (Cy3 cluster intensity, sum of 5 cycles each) (fold (ratio)); higher = stronger signal-on switching upon ATP binding; sequences stand for … in TCGTCGGCAGCGTCAGATGTGTATAAGAGACAGTTTTTTTTTTTTTTTTTTTTTTTTT…TC
Details: aptamer strand: ATP DNA aptamer (quencher-CACCTGGGGGAGTATTGCGGAGGAAGG + anchor), 100 nM annealed; ATP concentration: 500 uM
In short: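 After annealing to 100 nM quencher-labelled ATP aptamer, Cy3-labelled switching-strand clusters on a modified Illumina MiSeq flow-cell were imaged in selection buffer. A second image followed after 15 min with 500 uM ATP at 22 °C, and five such buffer/ATP cycles were done, each separated by NaOH stripping and re-annealing. The fluorescence ratio, averaged per switch-domain sequence, is summed target-cycle over summed buffer-cycle Cy3 intensity per cluster, with clusters outside 100-1000 RFU excluded.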
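Also: ATP exposure 15 min at 22 °C before imaging.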

| Sequence | switch fluorescence ratio |
| --- | --- |
| TTTGAGACGG | 0.99 ± 0.019 |
| ATTTTTTGGG | 0.9597 ± 0.0069 |
| TGGGGTTGAT | 0.968 ± 0.033 |
| AGTATATGCC | 1 ± 0.034 |
| TATAGGAAAA | 1.35 ± 0.61 |
| AGATGAGGTG | 1.01 ± 0.019 |
| TGGGTACAGT | 1.03 ± 0.05 |
| TGGTTAAAGG | 0.978 ± 0.024 |
| TCCTCATGGT | 1 ± 0.022 |
| ATATGCTGGT | 0.982 ± 0.014 |
| TAGGGGCACA | 1.01 ± 0.033 |
| CTCTGTGTTT | 0.9924 ± 0.00037 |
| GCTCGTAGGC | 0.99 ± 0.054 |
| CGGCTTTTGG | 0.9617 ± 0.0084 |
| GATGTGTTCT | 0.988 ± 0.042 |
| TTTGGAAGTT | 0.9817 ± 0.0035 |
| TCAAGGGGCT | 1 ± 0.013 |
| CGTGGGGGGA | 1.03 ± 0.013 |
| GGATGGCTTC | 0.9987 ± 0.0023 |
| GGGGGTCTGT | 0.972 ± 0.013 |
| TGTATTTCGT | 1.01 ± 0.011 |
| AACTTATGTC | 0.9738 ± 0.0069 |
| GATTTTAGTC | 0.993 ± 0.04 |

| Sequence | switch fluorescence ratio |
| --- | --- |
| CGAGGGCATG | 1.07 ± 0.045 |
| AATCAAACTA | 1.05 ± 0.028 |
| GCACATTATG | 0.985 ± 0.011 |
| CTATATACCA | 1.06 ± 0.043 |
| TAGGGGGGAG | 0.981 ± 0.024 |
| TGCTTCTGAA | 0.9635 ± 0.0092 |
| AGTTAGTTGT | 1 ± 0.028 |
| TGTCATTGGA | 0.989 ± 0.017 |
| AAGGCAGGTT | 1.021 ± 0.0068 |
| GTAATAAATT | 1.02 ± 0.092 |
| AAGTTCAAGA | 0.99 ± 0.045 |
| TCGAGTCATT | 0.9913 ± 0.005 |
| GGTGTAGCTA | 0.981 ± 0.061 |
| ACCGGTTATT | 1 ± 0.013 |
| TTAAGAAGCG | 1.01 ± 0.06 |
| TGCAATTGGG | 1.08 ± 0.022 |
| TCATGGGTTG | 0.981 ± 0.0053 |
| TACCAGCATT | 1.1 ± 0.051 |
| AAGGGCCCTT | 1.01 ± 0.018 |
| TCCCCATGGC | 1.35 ± 0.1 |
| TAAGAAAAAT | 1.062 ± 0.0081 |
| CCTAGGGGTG | 1.32 ± 0.27 |
| CGGGCGGTCG | 0.975 ± 0.068 |

| Sequence | switch fluorescence ratio |
| --- | --- |
| TTATCTCTGG | 0.9776 ± 0.0076 |
| GACAGGGGTT | 1.04 ± 0.015 |
| TTAAGGCATG | 0.997 ± 0.018 |
| AAACATAGGA | 0.992 ± 0.063 |
| GCATTTGAAA | 0.978 ± 0.011 |
| TTATTGTTTT | 1.02 ± 0.065 |
| TGACACATAC | 2.24 ± 0.033 |
| GGTTACTTTA | 1.07 ± 0.064 |
| GTTGTTTAGG | 0.953 ± 0.023 |
| CCTGCTTTGG | 1.07 ± 0.083 |
| TCTGGAAGGG | 1.02 ± 0.019 |
| TGGTTCAGAG | 0.969 ± 0.044 |
| TAGGTTTGGG | 0.962 ± 0.025 |
| ATGGCTGGCG | 1.07 ± 0.094 |
| GGCGTATATG | 0.973 ± 0.027 |
| GTGATTTTTG | 1.01 ± 0.063 |
| GAGGGTAGCG | 0.96 ± 0.059 |
| ATTAGGTAAT | 0.999 ± 0.011 |
| GGGGGTGTTT | 0.998 ± 0.037 |
| CTGTCTGGCT | 1.02 ± 0.016 |
| TGGGGTGCAC | 0.957 ± 0.024 |
| TAGAAAAAGA | 0.988 ± 0.016 |
| ACCATGGCTT | 0.976 ± 0.013 |

| Sequence | switch fluorescence ratio |
| --- | --- |
| ACATTACACA | 1.4 ± 0.25 |
| TTTATTGCTA | 1.01 ± 0.034 |
| TGGGCAGGGA | 0.9817 ± 0.0024 |
| TGTGGATAGG | 1.03 ± 0.012 |
| ATTATTCTTT | 1.01 ± 0.061 |
| GCTTTTGAGG | 1.04 ± 0.012 |
| TTTGGGTTAT | 1.08 ± 0.21 |
| TTTGATAGAT | 0.977 ± 0.012 |
| TTTGACCTGT | 0.991 ± 0.013 |
| AGGAGTGCTG | 0.995 ± 0.052 |
| TAGGCAGGGC | 1.04 ± 0.11 |
| TATATGCCGT | 1.02 ± 0.066 |
| AATAGGGTCG | 0.975 ± 0.064 |
| GCATCATTCA | 1.03 ± 0.017 |
| GCGGGCATTT | 0.995 ± 0.015 |
| ATCTTAGGTT | 1.03 ± 0.096 |
| TGGGGTTATG | 0.984 ± 0.019 |
| TTATGACATT | 1.01 ± 0.044 |
| CCTAGGGGTC | 1.09 ± 0.028 |
| GTGTCAACGT | 0.978 ± 0.017 |
| GTGGGAGGTG | 1 ± 0.046 |
| TGTGGCACAC | 1.01 ± 0.018 |
| GGGGGGGCCG | 0.993 ± 0.048 |

| Sequence | switch fluorescence ratio |
| --- | --- |
| AATAGTGGTA | 1 ± 0.029 |
| GACGGTTATT | 1.002 ± 0.0036 |
| TTCTGACGGT | 1.12 ± 0.037 |
| CCTGGGGGTA | 1.04 ± 0.024 |
| TGATGAAAAA | 1.01 ± 0.04 |
| AGGGGAAAAC | 1.03 ± 0.044 |
| ATCGACGTTT | 1.03 ± 0.055 |
| CGGGCTTCGA | 0.993 ± 0.013 |
| CGGTGTAAAA | 0.961 ± 0.011 |
| AAACGGAGTG | 1 ± 0.023 |
| TATTGGTCGT | 0.968 ± 0.042 |
| GCATTGGGGG | 0.995 ± 0.041 |
| GATGCTGTGG | 0.958 ± 0.003 |
| AATTGTATCA | 1 ± 0.054 |
| CGGGGATATT | 1.11 ± 0.23 |
| AAATGGTGTA | 0.983 ± 0.028 |
| AAAAGTGTCG | 1.06 ± 0.056 |
| TAATAAGGTG | 1.13 ± 0.23 |
| CGTATGGTTC | 0.996 ± 0.031 |
| TTTAGTACGC | 1.05 ± 0.0076 |
| TTTAAGACAA | 0.9892 ± 0.0025 |
| GTTAGGAATT | 0.985 ± 0.032 |
| TGAGACAAGC | 1.05 ± 0.012 |

| Sequence | switch fluorescence ratio |
| --- | --- |
| GAGGGTTGTT | 0.997 ± 0.019 |
| CGTTTAGGAC | 1.1 ± 0.21 |
| CGTGGGAGGT | 0.987 ± 0.036 |
| TTTGGGGCGG | 0.989 ± 0.038 |
| TTTCGAGTTG | 0.9809 ± 0.0029 |
| AAAACACGCT | 1.18 ± 0.2 |
| TTTAAGTCAG | 1.018 ± 0.0088 |
| GGGGGAAAAT | 0.993 ± 0.042 |
| TTGCCACGGA | 1.07 ± 0.051 |
| GGTCCGTTTC | 1.01 ± 0.056 |
| TCGCGGGAGA | 1.05 ± 0.023 |
| GGTTGGCCCC | 1.02 ± 0.019 |
| GCCGGCGTCG | 1.03 ± 0.035 |
| ATATCAGTTC | 1.012 ± 0.0091 |
| TTTAAATGCG | 0.985 ± 0.041 |
| CAAGGACGTT | 0.997 ± 0.02 |
| CGACCACTTT | 1.04 ± 0.025 |
| GTGCTAACCT | 1.271 ± 0.011 |
| ATTCGTCATA | 1.04 ± 0.075 |
| ACTTGTGGTC | 0.9952 ± 0.0084 |
| ATTTTGTGTG | 0.989 ± 0.011 |
| CCAGTGGTTT | 1.01 ± 0.012 |
| ATGGGGGCTG | 1.02 ± 0.047 |

| Sequence | switch fluorescence ratio |
| --- | --- |
| TAGTAGGCCA | 1.01 ± 0.055 |
| CATGTTGCGA | 1.04 ± 0.023 |
| CGTTACGCTT | 1.05 ± 0.066 |
| CGAAAGATGA | 0.982 ± 0.019 |
| GGGGGCTTGG | 0.998 ± 0.032 |
| GCAGAGGGC | 1 ± 0.012 |
| TCGTAAGAAA | 1.01 ± 0.043 |
| CCAAGATGTG | 0.997 ± 0.01 |
| TTGACCTGGT | 1.05 ± 0.053 |
| ACCTAGGACT | 1.024 ± 0.0027 |
| CAATACCTAT | 1.05 ± 0.022 |
| TAGGCATTTG | 1.006 ± 0.0069 |
| CTTGGTTCGA | 0.978 ± 0.026 |
| GTTGTTCGGT | 1.01 ± 0.015 |
| AGGGGGAGAT | 1.02 ± 0.042 |
| CAGGTAAATG | 0.9961 ± 0.0027 |
| ATTATGGCGC | 0.967 ± 0.0049 |
| AGATCGGATA | 1.01 ± 0.024 |
| TTAAACGAGT | 0.997 ± 0.017 |
